Experimental data: PMC4019675

Target: FtsZ-Alexa488 (Cys-FtsZ labeled with Alexa488-maleimide)
Assay: TIRF microscopy, single particle tracking

average lifetime of FtsZ monomers in the filament network: 7.16 s
Substance: FtsZ-Cy5 (Cys-FtsZ labeled with Cy5-maleimide) (natural protein)
